In US10428347B2, “Herbicide-detoxifying enzymes and uses thereof” (priority 2017, dated 2019):

Legend:
[1] = 2,4-D degradation by TfdA (2,4-dichlorophenol colorimetric assay and HPLC); assay type: biochemical
Protocol: They were cloned, expressed, and produced in production batches as previously described for SM1 and other pesticide detoxifying enzymes. […] Reactions were then added to a 15 mL conical tube and placed in a shaker at 30° C. Aliquots consisting of 1 mL were taken from each reaction at the desired time points and flash frozen in a −80° C. freezer for later testing.
The 2,4-D degradation reaction samples were defrosted and vortexed. Samples consisting of 200 μL of each reaction were removed and placed in a 96 well plate. To each well on the assay plate containing a reaction sample, […] pH 10 (0.309 g boric acid, 0.373 g potassium chloride, 4.4 mL 1 M NaOH per 100 mL solution), 2 μL 2% 4-aminoantipyrine, and 2 μL 8% potassium ferricyanide were added. The wells were mixed by back pipetting. The plate was then covered with a film and placed in a 30° C. incubator for 1 hour.

[2] = NADPH consumption by immobilized monooxygenases with 2,4-D; assay type: biochemical; details: immobilized enzyme, 2,4-D 150 μM, 30° C., 60 minutes, vs no enzyme negative control (FIG. 3)
Protocol: Monooxygenases can be used to detoxify herbicides in a solution. Monooxygenases use NADPH as a co-factor when degrading substrates. Consumption of NADPH is proportional to the degradation of the substrate.
The ability of each of these enzymes to detoxify 2,4-D was evaluated in a similar manner. […] Aliquots were taken from the samples at 30 minute and one hour timepoints, and NADPH consumption was assessed by measuring absorbance at 340 nm.
(§1) An additional experiment was performed to assess the substrate specificity of the salicylate monooxygenase (SM, SEQ ID NO: 21). […] The assay buffer also contained 0.5 mM FeSO4, 0.5 mM NADPH, 10 mM MgCl2, and 25 mM HEPES (pH 7). After 60 minutes, absorbance at 340 nm was measured to detect NADPH consumption. Data are represented as averages+/−SD from three independent reads of each reaction.

[3] = NADPH consumption by immobilized monooxygenases with dicamba; assay type: biochemical; details: immobilized enzyme, dicamba 150 μM, 30° C., 60 minutes, vs no enzyme negative control (FIG. 3)
lentil plants = experiment: Lentil seeds coated with immobilized enzyme, grown in dicamba-containing soil; assay type: in vivo
Protocol: For each treatment group, eighteen lentil seeds were coated with immobilized salicylate monooxygenase (SM, SEQ ID NO: 21) or hydroxyphenylacetate monooxygenase (HPAM, SEQ ID NO: 30), or with a water-only control (H2O) or a control containing only the particles used for immobilization, without any enzyme (“Particle Alone”). […] 50 ml of water was selected as this is the saturation point of this soil at this scale. Herbicides were allowed to sit in the soil for 24 hours before planting of coated seeds. Germination rate was measured at one week and root and shoot lengths were measured after two weeks.
Further data illustrating the protective effects of salicylate monooxygenase (SM) and hydroxyphenylacetate monooxygenase (HPAM) on lentil plants grown in dicamba-containing soil are provided in FIGS. 6-9. Lentil seeds were treated as described above with water alone, particle alone, or enzyme immobilized on a particle. […] Growth (shoot and root length) was measured at two weeks.

soybean seedlings = experiment: Spray of enzyme-treated dicamba solution onto soybean seedlings; assay type: in vivo; details: 208 μM dicamba, immobilized enzyme, 30° C., soybean seedlings, one week
Protocol: Salicylate monooxygenase (SM, SEQ ID NO: 21) and hydroxyphenylacetate monooxygenase (HPAM, SEQ ID NO: 30) were immobilized on particles. […] Aliquots (1 ml) were taken from incubated samples at 0 minutes, 10 minutes, 30 minutes, 1 hour, 5 hours, 24 hours and 30 hours after the introduction of SM and immediately frozen to stop the detoxification reaction. NADPH consumption was quantified by measuring loss of absorbance at 340 nm using a spectrophotometer. Results for SM are shown in panel A of FIG. 10 and results for HPAM are shown in panel A of FIG. 11. Consumption of NADPH is proportional to the degradation of dicamba.
Immediately after taking the absorbance measurements, the 1 ml aliquots were mixed with a nonionic organosilicone surfactant copolymer (0.1% SILWET L77) and 200 μL of the mixture was sprayed onto 2.5-week-old soybean seedlings (six plants per treatment group, on average). The use of the surfactant ensured even distribution of the solutions on the plants. Control plants were sprayed with water+surfactant alone or dicamba+surfactant alone. After one week, the degree of herbicide damage or the degree of protection from dicamba-induced injury (in plants treated with SM) was assessed visually.

[4] = NADPH consumption by immobilized salicylate monooxygenase with salicylic acid; assay type: biochemical; details: immobilized enzyme, salicylic acid 150 μM, 30° C., 60 minutes (FIG. 3)
Protocol: as §1

soybean plants [5] = experiment: Field soybean plant protection assay with dicamba, CAC or ChD and MnSO4; details: field soybean V3-V6, dicamba reaction buffer 200 ppm with 50 mM MnSO4, after 11 days
Protocol: The CAC and ChD enzymes were generated in production batches as previously described and divided up into aliquots and centrifuged to remove any cellular debris. […] The dilution to achieve 200 ppm or 200 mg/L was made in 25 mM HEPES pH 7 in a 10 mL total volume. […] To each treatment, 0.01% SILWET L-77 surfactant was added. Then, 4 mL of reaction solution was applied evenly across 20 plants and compared to the untreated control plants applied to soybean grown in the same location in the field to minimize any field variability. After 11 days, the average trifoliate damage was evaluated by visual scoring.

[6] = Absorbance spectra assay of dicamba degradation by ChD or CAC; details: dicamba 200 mg/L + enzyme at 20X dilution (5 μM), one hour at 37° C.
[7] = Absorbance spectra assay of MCPA-4 amine degradation by ChD or CAC; assay type: biochemical; details: one hour at 37° C.
Protocol: (§2) Small scale (1 mL) assays were performed to evaluate the ability of ChD and CAC to degrade MCPA-4 amine or mecoprop.
(§3) MCPA-4 amine and mecoprop have absorbance maxima (Amax) at approximately 230 and 280 nm. […] MCPA-4 amine or mecoprop end product generation is directly proportional to the degradation MCPA-4 amine or mecoprop, respectively.

[8] = Absorbance spectra assay of mecoprop degradation by ChD or CAC; assay type: biochemical; details: one hour at 37° C.
Protocol: as §2, §3

[9] = Absorbance spectra assay of 2,4-D degradation by ChD or CAC; assay type: biochemical; details: 2,4-D 200 mg/L + enzyme at 20X dilution (5 μM), one hour at 37° C.
soybean plants [10] = experiment: V1 soybean bioassay of dicamba reacted with ChD with or without MnSO4; details: dicamba 100-200 ppm
Protocol: Soybean plants (variety Morsoy Xtra) were planted in Timberline soil (2 seeds per pot) and grown for 12 days under controlled environmental growth conditions: 300 μmol m^−2 s^−1 (light photons) for a 13/11 light/day cycle and a 21° C. day/15° C. night temperature range until the V1 stage of development.
The dilution to achieve 100 ppm or 100 mg/L was made in 25 mM HEPES pH 7 in a 10 mL total volume. […] The ChD enzyme production was centrifuged to remove any cellular debris and then divided into aliquots of 100 μL containing the Bacillus subtillis (A64) filtrate with the ChD expressed enzyme. […] The reactions were incubated at 37° C. with 400 ppm stirring for two hours. Aliquots of the reactions were collected and stored at −80° C.

soybean plants [11] = experiment: Soybean seed treatment with chlorothalonil dehalogenase, simulated spray drift of dicamba or 2,4-D; assay type: in vivo; details: soybean seed coated with 3 uL enzyme, 4 weeks after planting; for Percentage Increase in Plant Height Compared to Untreated Seed (2,4-D; Weedar ®64 Spray Treatment) / Percentage Increase in Total Plant Biomass Compared to Untreated Seed (2,4-D; Weedar ®64 Spray Treatment): over the top 2,4-D 500 ppm; for Percentage Increase in Plant Height Compared to Untreated Seed (Dicamba; Clash ™ Spray Treatment) / Percentage Increase in Total Plant Biomass Compared to Untreated Seed (Dicamba; Clash ™ Spray Treatment): over the top dicamba 100 ppm
Protocol: Soybean (variety Asgrow AG4034) seed received a seed treatment with chlorothalonil dehalogenase (SEQ ID NO: 169) enzyme obtained from a production batch produced in a manner similar to that was described previously to generate the SM1 enzyme. Seed treatments were applied prior to planting. […] Seeds were then planted directly into 39.7 cm^3 pots containing a mixture of 3:1 Timberline top soil to MIRACLE GRO potting soil at a depth of 2.54 cm, with 2 seeds per pot. After planting, 50 mL of room temperature water was added to each pot to allow for germination. […] The treatments were then placed in a greenhouse and randomized using a complete block design to adjust for temperature and lighting differences. The plants received the same day/night cycle that would occur in the field on a summer's day. After the initial watering, plants received the same watering regimes. […] The soybean plants were then harvested and measured for biomass and plant height 4 weeks after planting.

[12] = listed as Chlorothalonil dehalogenase (SEQ ID NO: 169)

B1: TfdA: 2,4-D alpha-ketoglutarate dioxygenase with A198V mutation, SEQ ID NO: 277 (protein, UniProt P10088 1-287, looked up)
Alpha-ketoglutarate-dependent …: MSVVANPLHPLFAAGVEDIDLREALGSTEVREIERLMDEKSVLVFRGQPLSQDQQIAFARNFGPLEGGFIKVNQRPSRFKYAELADISNVSLDGKVAQRDAREVVGNFANQLWHSDSSFQQPAARYSMLSAVVVPPSGGDTEFCDMRAAYDALPRDLQSELEGLRAEHYALNSRFLLGDTDYSEAQRNAMPPVNWPLVRTHAGSGRKFLFIGAHASHVEGLPVAEGRMLLAELLEHATQREFVYRHRWNVGDLVMWDNRCVLHRGRRYDISARRELRRATTLDDAVV
2,4-dichlorophenol generated ([1]; 2,4-D with TfdA enzyme, after 1 hour of incubation, 30° C. (FIG. 19)): over 2 mg/L | reduction of 2,4-D concentration quantified by HPLC ([1]; 2,4-D with TfdA, at 4 hours (FIG. 20)): ~10%

B2: SM: salicylate monooxygenase from Bacillus cereus BGSC 6E1, amino acid SEQ ID NO: 21 (nucleotide SEQ ID NO: 1) (protein, listed as Bacillus cereus)
chain: MNNVIIIGGGIAGLCAAISLQKIGLDVKVYDKNTEPTVAGAGIIIAPNAMQALELYGISKKIKKFGNESDGFNLVSEKGTTFNKLIIPTCYPKMYSIHRKDLHQLLLSELKEDTVKWGKECVKIEQNEANALKIVFQDGSEALGNILIAADGIHSVIRKQVTQGDNYRYAGYTCWRGVTPANNLSLTNDFIETWGTNGRFGIVPLPNNEVYWYALINAKARDPKYKAYTTTDLYNHFKTYHNPIPSILKNASDIDMIHRDIIDITPMKQFFDKRIVFIGDAAHALTPNLGQGACQAIEDAIILAECIKNNAHYRQAFLEYEQKRRDRIEKISNTAWKVGKMAQIESKPLTLVRNEVMKRMPKWVSEKRTHELYSFHL
NADPH consumption [2]: statistically significant levels | NADPH consumption [3]: statistically significant levels | germination rate (lentil plants; lentil seeds coated with immobilized enzyme, soil with dicamba 0.1× or […] label rate, one week, vs water and particle-alone controls): positive effect | shoot length (lentil plants; two-week-old lentil, soil with dicamba 0.1× label rate (0.588 mg/L), vs water only or particle only controls (FIG. 6, FIG. 8)): increased shoot lengths | incubation time of enzyme with dicamba giving plants equivalent to the water control (soybean seedlings): ≤ 10 min | NADPH consumption [4]: higher activity

B3: CAC: 6-chloronicotinic acid chlorohydrolase from Bradyrhizobiaceae strain SG-6C, amino acid SEQ ID NO: 167 (protein)
chain: MSLIAIKNADWILTMDGARRVIADGSILIDKDRIRAIGKSAVIEIPPETTKVIDGRGKVVLPGLIDSHTHHSLHLGRGLADECDIQTFLYRRLYPIEASLNDEDAYISALLCQLEMIKSGTTSIIDAGNYFPEATLRAFGTTGMRGVVARSTFDIPTSSLGSLPAQVFAEETNVALKRAEEFVERNSGACDGRVQAWLQLRVLPNCSDELCRGLKSIADRLGVRYEAHAAFTKEVYEASKLQFGKSEVRRLDDLGILGEGLLLAHMGWLTPRDILLLISSKTNVVLCPTSSVHQAMGSIAFGHVPELLEMGVNVALGTDGGPHGTNDLVRQIFVAAGGYKEVRLDATIMPPETVLEMATVNGARAMGMSDQVGSIEPGKKADITIFDSRRPEWRPLHNPVANLVYCANGNSADTVIVDGRILMENRKILTFNEDDVITEAQRRSVEIGARAGLLEYGRPRWPVH
modifications: Bradyrhizobiaceae family
average trifoliate damage score (soybean plants [5]): 1.0 | Percent (%) increase in 259 λ (end product formed) compared to dicamba control [6]: 344% | Percent (%) increase in 252 λ (end product formed) compared to MCPA-4-Amine control ([7]; MCPA-4 amine 200 mg/L + enzyme at 20X dilution (5 μM)): 340% | Percent (%) increase in 252 λ (end product formed) compared to MCPA-4-Amine control ([7]; MCPA-4 amine 200 mg/L + enzyme at 40X dilution ([…])): 195% | Percent (%) increase in 252 λ (end-product formed) compared to Mecoprop control ([8]; mecoprop 200 mg/L + enzyme at 20X dilution (5 μM)): 346% | Percent (%) increase in 252 λ (end-product formed) compared to Mecoprop control ([8]; mecoprop 200 mg/L + enzyme at 40X dilution ([…])): 130% | Percent (%) increase in 252 λ, (end product formed) compared to 2,4-D control [9]: 148%

B4: ChD (SEQ ID NO: 169): chlorothalonil dehalogenase from Pseudomonas species strain CTN-3 with fifteen amino acid N-terminal truncation, SEQ ID NO: 169 (protein, listed as Pseudomonas sp.)
chain: MPLKFSGVLCASLLTITLSVAAHATELILDFNKVQMRSQQLAPGVYAHLPADSAELNAKGGVAGTSGGLIVGTRGAMLIETMLNRRLFDQVQALAKKEALGLPLLYAVNTSYHGDHSYGNMYLKAPTRVIQSTKTRDYVDGHLADDKAFMVKNFGAGRGVEQITARTGDILVPPGGRVSVDLGGKTVEIIDFGFAQTGGDLFVWEPQSKVMWTGNAVVASKPALPWLLDGKLVETLATLQKVYDFLPPDATIVPGHGVPMAREGLRWHLDYLAAVQAGVKDALARKLSLEQTVTELKMPEFRGYVLFDWVHPDLNVPAAYKDLAARP
average trifoliate damage score (soybean plants [5]): 1.1 | epinasty score and damage score on the trifoliate leaves compared to dicamba applied alone (soybean plants [10]): decrease in damage | Percentage Increase in Plant Height Compared to Untreated Seed (2,4-D; Weedar ®64 Spray Treatment) (soybean plants [11]): +6% | Percentage Increase in Total Plant Biomass Compared to Untreated Seed (2,4-D; Weedar ®64 Spray Treatment) (soybean plants [11]): +6% | Percentage Increase in Plant Height Compared to Untreated Seed (2,4-D; Weedar ®64 Spray Treatment) (soybean plants [11]; [12]): +6% | Percentage Increase in Total Plant Biomass Compared to Untreated Seed (2,4-D; Weedar ®64 Spray Treatment) (soybean plants [11]; [12]): +6% | Percentage Increase in Plant Height Compared to Untreated Seed (Dicamba; Clash ™ Spray Treatment) (soybean plants [11]): +35% | Percentage Increase in Total Plant Biomass Compared to Untreated Seed (Dicamba; Clash ™ Spray Treatment) (soybean plants [11]): +149% | Percentage Increase in Plant Height Compared to Untreated Seed (Dicamba; Clash ™ Spray Treatment) (soybean plants [11]; [12]): +35% | Percentage Increase in Total Plant Biomass Compared to Untreated Seed (Dicamba; Clash ™ Spray Treatment) (soybean plants [11]; [12]): +149%
